Values of other authors, collected in US20030144198A1, “Coadministration of transport protein with conjugated cobalamin to deliver agents” (priority 2001, published 2003).

B1: HC: haptocorrin, group of cobalamin binding proteins that includes TC-I and TC-III (protein, UniProt P20061 24-433, looked up)
Transcobalamin-1: EICEVSEENYIRLKPLLNTMIQSNYNRGTSAVNVVLSLKLVGIQIQTLMQKMIQQIKYNVKSRLSDVSSGELALIILALGVCRNAEENLIYDYHLIDKLENKFQAEIENMEAHNGTPLTNYYQLSLDVLALCLFNGNYSTAEVVNHFTPENKNYYFGSQFSVDTGAMAVLALTCVKKSLINGQIKADEGSLKNISIYTKSLVEKILSEKKENGLIGNTFSTGEAMQALFVSSDYYNENDWNCQQTLNTVLTEISQGAFSNPNAAAQVLPALMGKTFLDINKDSSCVSASGNFNISADEPITVTPPDSQSYISVNYSVRINETYFTNVTVLNGSVFLSVMEKAQKMNDTIFGFTMEERSWGPYITCIQGLCANNNDRTYWELLSGGEPLSQGAGSYVVRNGENLEVRWSKY
B2: TC-I: transcobalamin I, plasma cobalamin storage protein (protein, UniProt P20061 24-433, looked up)
Transcobalamin-1: EICEVSEENYIRLKPLLNTMIQSNYNRGTSAVNVVLSLKLVGIQIQTLMQKMIQQIKYNVKSRLSDVSSGELALIILALGVCRNAEENLIYDYHLIDKLENKFQAEIENMEAHNGTPLTNYYQLSLDVLALCLFNGNYSTAEVVNHFTPENKNYYFGSQFSVDTGAMAVLALTCVKKSLINGQIKADEGSLKNISIYTKSLVEKILSEKKENGLIGNTFSTGEAMQALFVSSDYYNENDWNCQQTLNTVLTEISQGAFSNPNAAAQVLPALMGKTFLDINKDSSCVSASGNFNISADEPITVTPPDSQSYISVNYSVRINETYFTNVTVLNGSVFLSVMEKAQKMNDTIFGFTMEERSWGPYITCIQGLCANNNDRTYWELLSGGEPLSQGAGSYVVRNGENLEVRWSKY

Columns and labels:
[1] = target: cubilin (Homo sapiens, UniProt O60494); details: at 20° C., single binding site, dependent on calcium
[2] = the D isomer was not hydrolyzed
[3] = in plasma

Chain of cubilin (O60494 36-3623, species assumed): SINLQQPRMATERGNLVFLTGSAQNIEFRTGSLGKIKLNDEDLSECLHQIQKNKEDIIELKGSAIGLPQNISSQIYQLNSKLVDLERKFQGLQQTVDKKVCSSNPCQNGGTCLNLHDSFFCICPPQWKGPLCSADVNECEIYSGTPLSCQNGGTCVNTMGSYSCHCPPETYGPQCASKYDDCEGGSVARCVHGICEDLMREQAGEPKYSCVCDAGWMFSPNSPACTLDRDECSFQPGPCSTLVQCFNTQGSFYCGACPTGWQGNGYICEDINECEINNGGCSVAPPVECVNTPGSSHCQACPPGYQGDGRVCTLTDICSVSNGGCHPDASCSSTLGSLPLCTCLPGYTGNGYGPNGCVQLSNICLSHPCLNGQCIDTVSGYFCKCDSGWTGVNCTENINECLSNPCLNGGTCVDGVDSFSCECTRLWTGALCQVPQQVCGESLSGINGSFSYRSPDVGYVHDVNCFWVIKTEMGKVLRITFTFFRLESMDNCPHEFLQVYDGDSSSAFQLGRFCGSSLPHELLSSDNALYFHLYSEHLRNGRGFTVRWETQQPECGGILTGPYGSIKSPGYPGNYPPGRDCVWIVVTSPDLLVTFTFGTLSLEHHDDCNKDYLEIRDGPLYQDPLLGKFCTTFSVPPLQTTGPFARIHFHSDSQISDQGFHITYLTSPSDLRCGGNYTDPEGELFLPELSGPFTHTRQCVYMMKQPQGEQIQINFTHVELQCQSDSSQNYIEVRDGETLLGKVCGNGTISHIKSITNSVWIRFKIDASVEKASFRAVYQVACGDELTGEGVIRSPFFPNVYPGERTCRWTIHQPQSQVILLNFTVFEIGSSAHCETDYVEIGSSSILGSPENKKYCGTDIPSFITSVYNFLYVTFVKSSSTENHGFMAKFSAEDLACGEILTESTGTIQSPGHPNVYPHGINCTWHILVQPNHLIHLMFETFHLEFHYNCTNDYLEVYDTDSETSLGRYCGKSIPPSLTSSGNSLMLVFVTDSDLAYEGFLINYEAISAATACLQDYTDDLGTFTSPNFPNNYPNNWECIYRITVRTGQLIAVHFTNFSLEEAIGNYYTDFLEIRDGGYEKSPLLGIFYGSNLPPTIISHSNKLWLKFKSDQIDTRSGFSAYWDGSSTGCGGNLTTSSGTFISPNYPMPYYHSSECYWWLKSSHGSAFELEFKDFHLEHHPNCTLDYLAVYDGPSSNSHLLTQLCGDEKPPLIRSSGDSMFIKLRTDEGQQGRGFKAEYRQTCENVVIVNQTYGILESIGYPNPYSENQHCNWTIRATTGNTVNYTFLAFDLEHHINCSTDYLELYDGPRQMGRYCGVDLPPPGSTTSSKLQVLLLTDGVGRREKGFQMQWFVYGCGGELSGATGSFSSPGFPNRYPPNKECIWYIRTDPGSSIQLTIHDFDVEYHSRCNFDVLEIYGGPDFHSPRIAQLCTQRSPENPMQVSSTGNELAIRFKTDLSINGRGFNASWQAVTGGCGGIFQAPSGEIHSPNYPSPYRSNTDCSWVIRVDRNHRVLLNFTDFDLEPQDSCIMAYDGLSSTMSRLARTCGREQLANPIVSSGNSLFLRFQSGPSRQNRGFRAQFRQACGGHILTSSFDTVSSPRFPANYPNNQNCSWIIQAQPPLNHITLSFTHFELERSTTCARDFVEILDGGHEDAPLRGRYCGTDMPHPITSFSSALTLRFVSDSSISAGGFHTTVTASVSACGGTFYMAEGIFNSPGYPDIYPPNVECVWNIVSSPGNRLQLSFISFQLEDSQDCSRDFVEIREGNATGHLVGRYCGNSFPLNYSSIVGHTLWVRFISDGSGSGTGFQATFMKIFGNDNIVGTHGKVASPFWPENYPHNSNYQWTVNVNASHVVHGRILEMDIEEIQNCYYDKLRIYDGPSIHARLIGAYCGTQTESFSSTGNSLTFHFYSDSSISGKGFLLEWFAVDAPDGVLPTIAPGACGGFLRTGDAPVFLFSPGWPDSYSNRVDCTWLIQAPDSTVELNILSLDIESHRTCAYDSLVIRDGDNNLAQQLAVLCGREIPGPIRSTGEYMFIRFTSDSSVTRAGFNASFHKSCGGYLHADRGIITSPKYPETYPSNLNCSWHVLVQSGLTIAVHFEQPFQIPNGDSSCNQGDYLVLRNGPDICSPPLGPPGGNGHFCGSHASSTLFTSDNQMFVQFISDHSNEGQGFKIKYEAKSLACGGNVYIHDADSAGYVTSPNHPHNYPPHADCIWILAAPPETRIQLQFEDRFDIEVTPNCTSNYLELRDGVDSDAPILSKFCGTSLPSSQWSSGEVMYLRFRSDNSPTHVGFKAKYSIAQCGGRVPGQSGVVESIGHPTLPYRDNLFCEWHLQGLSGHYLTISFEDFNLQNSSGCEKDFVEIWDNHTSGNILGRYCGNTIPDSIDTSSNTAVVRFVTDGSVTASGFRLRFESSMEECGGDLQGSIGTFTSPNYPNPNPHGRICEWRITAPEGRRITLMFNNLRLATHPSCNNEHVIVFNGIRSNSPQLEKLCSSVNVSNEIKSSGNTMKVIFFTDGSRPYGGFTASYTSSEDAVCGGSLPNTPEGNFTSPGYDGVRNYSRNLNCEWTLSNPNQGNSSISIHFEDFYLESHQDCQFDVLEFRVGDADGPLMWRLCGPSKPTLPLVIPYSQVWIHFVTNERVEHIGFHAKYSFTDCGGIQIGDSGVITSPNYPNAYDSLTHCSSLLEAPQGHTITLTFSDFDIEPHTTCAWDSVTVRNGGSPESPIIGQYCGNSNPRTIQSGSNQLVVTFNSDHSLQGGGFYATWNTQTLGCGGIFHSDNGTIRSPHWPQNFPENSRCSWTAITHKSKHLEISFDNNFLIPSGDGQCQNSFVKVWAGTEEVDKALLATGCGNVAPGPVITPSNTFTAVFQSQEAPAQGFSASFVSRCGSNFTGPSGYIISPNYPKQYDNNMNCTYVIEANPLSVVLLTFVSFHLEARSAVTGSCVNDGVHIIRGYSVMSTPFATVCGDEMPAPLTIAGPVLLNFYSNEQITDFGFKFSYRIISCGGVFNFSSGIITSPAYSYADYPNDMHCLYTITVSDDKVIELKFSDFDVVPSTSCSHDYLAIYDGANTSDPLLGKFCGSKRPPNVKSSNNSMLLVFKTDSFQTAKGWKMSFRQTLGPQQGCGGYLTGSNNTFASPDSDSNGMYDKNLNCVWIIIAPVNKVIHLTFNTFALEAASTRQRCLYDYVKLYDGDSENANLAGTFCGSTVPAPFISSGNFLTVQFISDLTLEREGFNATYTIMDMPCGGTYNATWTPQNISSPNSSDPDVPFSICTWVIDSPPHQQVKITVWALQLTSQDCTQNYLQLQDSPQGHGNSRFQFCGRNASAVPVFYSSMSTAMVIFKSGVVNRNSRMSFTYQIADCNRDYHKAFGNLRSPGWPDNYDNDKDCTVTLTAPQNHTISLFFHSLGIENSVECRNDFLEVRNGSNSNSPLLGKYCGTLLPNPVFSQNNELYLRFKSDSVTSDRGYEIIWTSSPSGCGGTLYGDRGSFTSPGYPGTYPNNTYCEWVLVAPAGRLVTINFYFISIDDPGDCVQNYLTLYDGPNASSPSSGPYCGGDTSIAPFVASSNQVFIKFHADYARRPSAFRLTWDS
Chain of cubilin (P27352 19-417 partner, species assumed): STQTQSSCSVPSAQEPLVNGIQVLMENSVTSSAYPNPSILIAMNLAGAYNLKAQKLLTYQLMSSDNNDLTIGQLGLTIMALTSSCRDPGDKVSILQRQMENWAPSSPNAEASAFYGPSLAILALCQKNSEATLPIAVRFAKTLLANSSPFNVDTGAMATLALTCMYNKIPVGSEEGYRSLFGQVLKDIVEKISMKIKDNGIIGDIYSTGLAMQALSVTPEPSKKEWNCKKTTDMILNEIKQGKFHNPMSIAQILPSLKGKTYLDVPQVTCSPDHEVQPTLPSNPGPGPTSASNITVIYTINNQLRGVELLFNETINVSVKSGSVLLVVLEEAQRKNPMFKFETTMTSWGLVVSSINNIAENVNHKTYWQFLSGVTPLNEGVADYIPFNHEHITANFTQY

| Molecule | t1/2 [3] [h] | other results |
| --- | --- | --- |
| IF-B12: complex of intrinsic factor with vitamin B12 | – | Kd [1]: 1 to 5 nM |
| COc1cccc2c1C(=O)c1c(O)c3c(c(O)c1C2=O)C[C@@](O)(C(C)=O)C[C@@H]3O[C@H]1C[C@H](NC(=O)[C@@H](N)CC(C)C)C(O)[C@H](C)O1 (stereo partly drawn) [N-(L-leucyl) daunorubicin] | – | hydrolysis in vivo [2]: hydrolyzed in vivo to regenerate daunorubicin |
| B1 | 240 | – |
| B2 | 240 | – |
